Data set [1] deals with the molecule itself. In words: crystal structure; apo PaFabF, space group P2_(1), two molecules in the asymmetric unit; 0.2 M MgCl2, 0.1 M Tris-HCl pH 7.0, 10% PEG 8000, 293 K.
Data set [2] deals with the molecule itself. In words: crystal structure; PaFabF-C164Q, space group C222_(1), a dimer in the asymmetric unit; 0.2 M NH4HCO2, 25% PEG 3350, 293 K.

B1: Pseudomonas aeruginosa β-ketoacyl-(acyl-carrier-protein) synthase II (FabF) (enzyme)
chain: MSRRRVVITGMGMLSPLGLDVPSSWEGILAGRSGIAPIEHMDLSAYSTRFGGSVKGFNVEEYLSAKEARKLDLFIQYGLAASFQAVRDSGLEVTDANRERIGVSMGSGIGGLTNIENNCRSLFEQGPRRISPFFVPGSIINMVSGFLSIHLGLQGPNYALTTACTTGTHSIGMAARNIAYGEADVMVAGGSEMAACGLGLGGFGAARALSTRNDEPTRASRPWDRDRDGFVLSDGSGALVLEELEHARARGARIYAELVGFGMSGDAFHMTAPPEDGAGAARCMKNALRDAGLDPRQVDYINAHGTSTPAGDIAEIAAVKSVFGEHAHALSMSSTKSMTGHLLGAAGAVEAIFSVLALRDQVAPPTINLDNPDEGCDLDLVAHEAKPRKIDVALSNSFGFGGTNGTLVFRRFAD
notes: β-ketoacyl-(acyl-carrier-protein) synthase II (FabF) of Pseudomonas aeruginosa, UniProt G3XDA2; the gene was cloned into pNIC28-Bsa4; theoretical mass of a monomer 43 kDa; The models hold 822 residues for two chains (4b7v) and 408 for one chain (4jpf); also called PaFabF; apo PaFabF; source: E. coli BL21(DE3)pLysS, purified (Ni2+ HisTrap, TEV cleavage, second HisTrap, Superdex 200 SEC); not …
B1: in data set [1], the binding result was “binds”.

B2: PaFabF C164Q mutant (enzyme)
chain: MSRRRVVITGMGMLSPLGLDVPSSWEGILAGRSGIAPIEHMDLSAYSTRFGGSVKGFNVEEYLSAKEARKLDLFIQYGLAASFQAVRDSGLEVTDANRERIGVSMGSGIGGLTNIENNCRSLFEQGPRRISPFFVPGSIINMVSGFLSIHLGLQGPNYALTTAQTTGTHSIGMAARNIAYGEADVMVAGGSEMAACGLGLGGFGAARALSTRNDEPTRASRPWDRDRDGFVLSDGSGALVLEELEHARARGARIYAELVGFGMSGDAFHMTAPPEDGAGAARCMKNALRDAGLDPRQVDYINAHGTSTPAGDIAEIAAVKSVFGEHAHALSMSSTKSMTGHLLGAAGAVEAIFSVLALRDQVAPPTINLDNPDEGCDLDLVAHEAKPRKIDVALSNSFGFGGTNGTLVFRRFAD
notes: β-ketoacyl-(acyl-carrier-protein) synthase II (FabF) of Pseudomonas aeruginosa, UniProt G3XDA2, with Cys164 changed to Gln; same construct in pNIC28-Bsa4 as the wild type; The model holds 824 residues for two chains (4jb6); source: E. coli BL21(DE3)pLysS, purified as the wild type but in phosphate buffer; not shown: His6, N-terminal, cleaved
On to B2, for which the binding result in data set [2] was “binds”.

The values are drawn from PMC4528935, “Structures of Pseudomonas aeruginosa β-ketoacyl-(acyl-carrier-protein) synthase II (FabF) and a C164Q mutant provide templates for antibacterial drug discovery and identify a buried potassium ion and a ligand-binding site that is an artefact of the crystal form” (Acta Crystallographica. Section F, Structural Biology …, 2015).
